Experiments:
[1] = tested on: 9-mer (SEQ ID NO:12) PRCGNPDVA
[2] = tested on: 19-mer (SEQ ID NO:11) PRCGNPDVANYNFFPRKPK
[3] = tested on: 10-mer (SEQ ID NO:13) NYNFFPRKPK

Chain of Active MMP-9 enzyme (chain, as listed by the source): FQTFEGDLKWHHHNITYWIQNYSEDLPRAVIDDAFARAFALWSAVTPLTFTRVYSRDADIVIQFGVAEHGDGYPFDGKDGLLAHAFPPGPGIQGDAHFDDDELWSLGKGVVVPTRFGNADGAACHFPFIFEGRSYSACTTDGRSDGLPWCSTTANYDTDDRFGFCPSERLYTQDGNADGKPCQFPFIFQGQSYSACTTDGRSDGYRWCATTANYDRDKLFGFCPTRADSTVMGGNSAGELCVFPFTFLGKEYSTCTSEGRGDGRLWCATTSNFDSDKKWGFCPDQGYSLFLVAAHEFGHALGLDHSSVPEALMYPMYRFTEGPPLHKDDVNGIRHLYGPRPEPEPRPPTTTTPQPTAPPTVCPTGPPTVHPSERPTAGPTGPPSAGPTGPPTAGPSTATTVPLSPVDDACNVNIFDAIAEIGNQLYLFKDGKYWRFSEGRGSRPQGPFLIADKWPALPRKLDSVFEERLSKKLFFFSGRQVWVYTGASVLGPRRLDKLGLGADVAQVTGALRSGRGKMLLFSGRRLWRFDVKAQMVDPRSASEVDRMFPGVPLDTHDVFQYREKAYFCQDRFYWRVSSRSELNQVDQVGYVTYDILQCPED

Substance: Active MMP-9 enzyme
- extended time course of MMP-9 catalyzed hydrolysis of collagen [1]: The 10-mer is less effective at preventing the destruction of collagen at long time points (FIG. 9) than is the 9-mer (FIG. 10)
- extended time course of MMP-9 catalyzed hydrolysis of collagen [2]: the 19-mer effectively inhibits the MMP-9 catalyzed hydrolysis of collagen to beyond 1000 minutes
- extended time course of MMP-9 catalyzed hydrolysis of collagen [3]: The 10-mer is less effective at preventing the destruction of collagen at long time points (FIG. 9) than is the 9-mer (FIG. 10)

Reference: patent US20040127421
